Biological target: GST-Ago-2 (full-length recombinant Ago-2) (UniProt Q9UKV8 1-859)
Assay: cell-based or functional assay

GST-Ago-2 (full-length recombinant Ago-2), sequence (Q9UKV8 whole entry): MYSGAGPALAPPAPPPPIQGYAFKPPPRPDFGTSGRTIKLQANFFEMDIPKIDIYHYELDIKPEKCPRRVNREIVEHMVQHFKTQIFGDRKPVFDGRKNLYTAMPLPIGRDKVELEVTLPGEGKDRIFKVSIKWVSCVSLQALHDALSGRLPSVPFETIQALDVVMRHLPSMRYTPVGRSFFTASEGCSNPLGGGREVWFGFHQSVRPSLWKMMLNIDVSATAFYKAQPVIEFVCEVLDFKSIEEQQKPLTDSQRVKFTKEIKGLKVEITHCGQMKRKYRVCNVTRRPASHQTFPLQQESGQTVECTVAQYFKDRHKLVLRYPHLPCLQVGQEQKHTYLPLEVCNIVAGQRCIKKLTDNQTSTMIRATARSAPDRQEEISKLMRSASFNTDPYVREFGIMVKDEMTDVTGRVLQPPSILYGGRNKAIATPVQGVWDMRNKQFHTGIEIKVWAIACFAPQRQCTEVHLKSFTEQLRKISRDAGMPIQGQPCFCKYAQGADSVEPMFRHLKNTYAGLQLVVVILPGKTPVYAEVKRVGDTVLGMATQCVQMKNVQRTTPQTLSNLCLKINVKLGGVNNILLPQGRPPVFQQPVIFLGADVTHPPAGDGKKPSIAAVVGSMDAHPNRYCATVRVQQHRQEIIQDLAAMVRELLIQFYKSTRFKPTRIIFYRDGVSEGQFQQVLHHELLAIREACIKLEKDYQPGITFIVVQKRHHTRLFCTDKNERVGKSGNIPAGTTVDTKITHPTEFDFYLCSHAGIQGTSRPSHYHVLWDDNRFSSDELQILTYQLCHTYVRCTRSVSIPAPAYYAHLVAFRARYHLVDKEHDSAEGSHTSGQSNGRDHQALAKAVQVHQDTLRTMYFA

B1: His-PARN (full-length recombinant PARN) (enzyme, UniProt O95453 1-639, looked up)
chain: MEIIRSNFKSNLHKVYQAIEEADFFAIDGEFSGISDGPSVSALTNGFDTPEERYQKLKKHSMDFLLFQFGLCTFKYDYTDSKYITKSFNFYVFPKPFNRSSPDVKFVCQSSSIDFLASQGFDFNKVFRNGIPYLNQEEERQLREQYDEKRSQANGAGALSYVSPNTSKCPVTIPEDQKKFIDQVVEKIEDLLQSEENKNLDLEPCTGFQRKLIYQTLSWKYPKGIHVETLETEKKERYIVISKVDEEERKRREQQKHAKEQEELNDAVGFSRVIHAIANSGKLVIGHNMLLDVMHTVHQFYCPLPADLSEFKEMTTCVFPRLLDTKLMASTQPFKDIINNTSLAELEKRLKETPFNPPKVESAEGFPSYDTASEQLHEAGYDAYITGLCFISMANYLGSFLSPPKIHVSARSKLIEPFFNKLFLMRVMDIPYLNLEGPDLQPKRDHVLHVTFPKEWKTSDLYQLFSAFGNIQISWIDDTSAFVSLSQPEQVKIAVNTSKYAESYRIQTYAEYMGRKQEEKQIKRKWTEDSWKEADSKRLNPQCIPYTLQNHYYRNNSFTAPSTVGKRNLSPSQEEAGLEDGVSGEISDTELEQTDSCAEPLSEGRKKAKKLKRMKKELSPAGSISKNSPATLFEVPDTW
For B1, which “in vitro reconstituted deadenylation of radiolabeled L3(A30) RNA substrate, limiting amounts of His-PARN and increasing amounts of GST-Ago-2” value is on record?
Its value is 2.4 fold.
